# This sample holds only a part of the variants without activity.
# B1: TPR 5TU (parent)
# chain: GGAUCUUCUCGAUCUAACAAAAAAGACAAAUCUGCCACAAAGCUUGAGAGCAUCUUCGGAUGCAGAGGCGGCAGCCUUCGGUGGCGCGAUAGCGCCAACGUUCUCAACUAUGACACGCAAAACGCGUGCUCCGUUGAAUGGAGUUUAUCAUG
# Variants of: B1
# Assay: polymerase ribozyme fitness, log enrichment relative to wild type (log ratio); higher = more active; in vitro selection for triplet polymerase activity
# In short: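 To select mutant libraries of each subunit of a heterodimeric triplet polymerase ribozyme, built by PCR and transcribed, each was annealed with a biotinylated primer, partner subunit and triplets, then incubated frozen at −7 °C. Extended constructs were gel-excised, captured on streptavidin beads and amplified by RT-PCR, in one round carried out in triplicate. Illumina sequencing of input and output libraries kept genotypes with ≥10 input reads and ≥1 read per output. Fitness is the base-2 logarithm of genotype enrichment relative to wild-type enrichment, from inverse-variance-weighted replicate averages.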
row,Variant,polymerase ribozyme fitness (log ratio)
1,GGAUCUUCUCGAUCUAACAAAAAAGACAAAUCUGCCACAAAGCUUGAGAGCCUCUUCGGAUGCAGAGGCGGCAGCCUUCGGUGGCGUGAUAGCGCCAACGUUCUCAACUAUGACACGCAAAACGCGUGCUCCGUUGAAUGGAGUUUAUCAUG [A52C C87U],-0.789
2,GGAUCUUCUCGAUCUAACAAAAAAGACAAAUCUGCCACAAAGCUUGAGAGCCUCUUCGGAUCCAGAGGCGGCAGCCUUCGGUGGCGCGAUAGCGCCAACGUUCUCAACUAUGACACGCAGAACGCGUGCUCCGUUGAAUUGAGUUUAUCAUG [A52C G62C A120G G140U],-4.1
3,GGAUCUUCUCGAUCUAACAAAAAAGACAAAUCUGCCACAAAGCUUGAGAGCCUCUUCGGAUGCAGACGCGGCAGCCUUCGGUUGCGCGAUAGCGCCAACGUUCUCAAUUAUGACACGCAAAACUCGUGCUCCGUUGAAUGGAGUUUAUCAUG [A52C G67C G83U C108U G124U],≤ -4.2
4,GGAUCUUCUCGAUCUAACAAAAAAGACAAAUCUGCCACAAAGCUUGAGAGCCUCUUCGGAUGCAGAGGCGGCAGCCUUCGGUGGCGCGAUAGCGCCAACGUUAUCAACUAUGACACGCAAAACGCGUGCUCCGUUGAAUGGAGUUUCUCAUG [A52C C103A A147C],≤ -4.2
5,GGAUCUUCUCGAUCUAACAAAAAAGACAAAUCUGCCACAAAGCUUGAGAGCCUCUUCGGAUGCAGAGGGGGCAGCCUUCGGUGUCGCGAUAGCGCCAACGUUCUCAACUAUGACCCGCAAAACGCGUGCUCCGUUGAAUGGAGUUUAUCAUG [A52C C69G G84U A115C],≤ -4.2
6,GGAUCUUCUCGAUCUAACAAAAAAGACAAAUCUGCCACAAAGCUUGAGAGCCUCUUCGGAUGCAGAGGCCGCAGCCUUCGGUGGUGCGAUAGCCCCAACGUUCUCAACUAUGACACGCAAAACGCGUGAUCCGUUGAAUGGAGUUUAUCAUG [A52C G70C C85U G94C C129A],≤ -4.2
7,GGAUCUUCUCGAUCUAACAAAAAAGACAAAUCUGCCACAAAGCUUGAGAGCCUCUUCGGAUGCAGAGGAGGCAGCCUUCGGUGGCGCGAUAGCGCAAACGUUCUCAACUAUGACACGCAAAACGCGUGCUCCGUUGAAUGGAGUUUAUCAUG [A52C C69A C96A],-3.18
8,GGAUCUUCUCGAUCUAACAAAAAAGACAAAUCUGCCACAAAGCUUGAGAGCCUCUUCGGAUGCAGAGGCGGCAGCCUUCGGUGGCGCGAUAGCGCGAACGUUCUCAACUAUGACACGCAAAACGCGUGCUCCGUUGAAUGGAGUUUAUCAUG [A52C C96G],-1.36
9,GGAUCUUCUCGAUCUAACAAAAAAGACAAAUCUGCCACAAAGCUUGAGAGCCUCUUCGGAUGCAGAGGCGGCAGCCUUCGGUGGCGCGAUAGCGCAAACGUUCUCAACUAUGACACGCAAAACGCGUGCUCCGUUGAAUGGAGUUUAUCAUG [A52C C96A],-1.55
10,GGAUCUUCUCGAUCUAACAAAAAAGACAAAUCUGCCACAAAGCUUGAGAGCCUCUUCGGAUGCAGAGGCAGCAGCCUUCGGUGGCGCGAGAGCGCCAACGUUCUCUACUAUGACACGCAAAACGCGUGCUCCGUUGAAUGGAGUUUAUCAUG [A52C G70A U90G A106U],≤ -4.2
11,GGAUCUUCUCGAUCUAACAAAAAAGACAAAUCUGCCACAAAGCUUGAGAGCCUCUUCGGAUGCAGAGGCGGCAGCCUUCGGUGGCGCGAUAGCGCCAAGGUUCUCAACUAUGACACGCAAAACGCGUGCUCCGUUGAAUGGAGUUUAUCAUG [A52C C99G],-4.11
12,GGAUCUUCUCGAUCUAACAAAAAAGACAAAUCUGCCACAAAGCUUGAGAGCCUCUUCGGAUGCAGAGGCGGCAGCCUUCGGUGGCGCGAUAGCGCCAAUGUUCUCAACUAUGACACGCAAAACGCGUGCUCCGUUGAAUGGAGUUUAUCAUG [A52C C99U],-1.81
13,GGAUCUUCUCGAUCUAACAAAAAAGACAAAUCUGCCACAAAGCUUGAGAGCCUCUUCGGAUGCAGAGGCGGCAGCCUUCGGUGGCGCGAUAGCGCUAACGUUCUCAACUAUGACACGCUAAACGCGUGCGCCGUUGAAUGGAGUUUAUCAUG [A52C C96U A119U U130G],≤ -4.2
14,GGAUCUUCUCGAUCUAACAAAAAAGACAAAUCUGCCACAAAGCUUGAGAGCCUCUUCGGAUGCAGAGGCGGCAGUCUUCGGUGGCGCGAUAGCGCCUACGUUCUCAACGAUGAAACGCAAAACGCGUGCUCCGUUGAAUGGAGUUUAUCAUG [A52C C75U A97U U109G C114A],-3.53
15,GGAUCUUCUCGAUCUAACAAAAAAGACAAAUCUGCCACAAAGCUUGAGAGCCUCUUCGAAUGCAGAGACGGCAGCCUUUGGUGGCGCGAUAUCGCCAACGUUCGCAACUAUGACACGCAAAACGCGUGCUCCGUUGAAUGGAGUUUAUCAUG [A52C G59A G68A C79U G92U U104G],≤ -4.2
16,GGAUCUUCUCGAUCUAACAAAAAAGACAAAUCUGCCACAAAGCUUGAGAGCCUCUUCCGAUGCAGAGGCGGCAGCCUUCGGUGGCGCGAUUGCGCCAACGUUCUCAACUAUGACACGCAAUACGCGUGCUCCGUUGAAUGGAGUUUAUCAUG [A52C G58C A91U A121U],≤ -4.2
17,GGAUCUUCUCGAUCUAACAAAAAAGACAAAUCUGCCACAAAGCUUGAGAGCCUCUUCGGAUGCAGAGGCGGCAGCCUUCCGUGGCGCGAUAGCGCCAACGUUCUCAACUAUGACACGCAAAACGCGUGCUCCGUUGAAUGGAGUUUAUCAUG [A52C G80C],≤ -4.2
18,GGAUCUUCUCGAUCUAACAAAAAAGACAAAUCUGCCACAAAGCUUGAGAGCCUCUUCUGAUGCAUAGGAGGCAGCCUUCCGUGGCGCGAUAGCGCCAACGUUAUCAAGUAUGACACGCAAAACGCGUGCUCCGUUGAAUGGAGUUUAUCAUG [A52C G58U G65U C69A G80C C103A C108G],≤ -4.2
19,GGAUCUUCUCGAUCUAACAAAAAAGACAAAUCUGCCACAAAGCUUGAGAGCCUCUUCGGAUGCAGAGGCGGCACCCUUCGGUGGCGCGAUAGCGCCAACGUUCUCAAUUAUGGCACGCAAAACGCGUGCUCCGUUGAAUGGAGUGUAUCAUG [A52C G74C C108U A113G U145G],≤ -4.2

# Source: the RNAGym collection of RNA variant scans (doi:10.1073/pnas.2313332121)
